Measurements from a protein production outcome set (Wang et al. 2014).

Experiment: label from the status in PepcDB records
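Note: failed if final PepcDB status was selected cloned or expressed and not failed if soluble or beyond.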

Q: For “MNALAVRWNDWPITRKSLAVVTLPLLLLAVALMAIYSVERQNIAAENDVRQTLEVLSDLYEAHALLAETAAGVRGYRLVRRDEFLTPYRDAEPRLQRVADRLSQRITDPSQAQRFARIKPLFAEKMQGWRRLLAPDLSREEEIRQLWDGKYKLDILRAELRELRNYETAQLQVRTAKAQGLRQRNLIITLSAAMLGGLGAVFAVAWFASALSGRLRTLAANADRLGEGLPLAPQPRAGDELGQVGQRLAQASELLAARAAEAQLARREAETANRAKTEFLSRSSHELRTPLNAILGYAQVLEMDLPEPGHRRHLRHILGAGRHLLGLITELLDIARIEADQLDLSPEPISVRAAVHEALGLIAPDADKHGIALQPASIDGPWTVRADAQRLRQVLLNLLSNAVKFNRTGGQVQVSAQADGEQVRITVADQGAGLTPAQIERLFTPFERLGAERSAVEGTGLGLALSKRLIEAMGGQIGVDSSSDGARFWISLPQGEHQHSEPTRPLVPPSNAGSGVCRLLSIEDNPSNQALIRTLTERRPQWQLLEAASLAQARELLQHGAPDLILLDLHLSDGNGEELLRELQAQPAMAAIPVVVISADATSATLARVGNQGVRAYLTKPLDVAEFFTVIDGLLA”, which protein production is on record?
A: Its protein production is “not failed”.

Q: With “MNALKGRDILALGFMTFALFVGAGNIIFPPIVGLQSGPHVWLAALGFLITAVGLPVITVIALAKVGGSVDALSHPIGRYAGGLLAAVCYLAVGPLFAIPRTATVSFEVGVVPLLGESGTALFVYSLAYFLLALAISLYPGRLLDTVGRFLAPLKILALAILGVAAFLWPAGPIGTAQPEYTQAAFSQGFVNGYLTMDTLAALVFGIVIVNAIRSRGVQSPRLITRYAIVAGLIAGVGLVLVYVSLFRLGAGSHAIAADASNGAAVLHAYVQHTFGSLGSSFLAGLIALACLVTAVGLTCACAEYFCQRLPLSYRSLVIILAGFSFIVSNLGLTKLIQVSIPVLTAIYPPCIVLVALSFCIGLWHSATRILAPVMLVSLAFGVLDALKAAGLGQDFPQWLLHLPLAEQGLAWLIPSVATLAACSLVDRLLGKPAQVAA” as the sequence, how does the protein production read?
A: Its protein production is “failed”.

Q: With “MNANYVSKKPYIVTIACTKGGSAKSTNAANIGAFCADHGLRTLLIDTDTQPTLSSYYSLAKTAPGGIYEFLLQRDVEPSHIVSQTSIKNLDLIQSNDPSNNVSHMLRNAPDGSIRFSHLIKSINNYDVIVIDTRGTRDITVDMSVLAADILFCPILPQILSAKEFIRGTIGMYQDLQTFESFGFKLPPLKAIANGVDNTNDVKFVMQKLHTLFANTFDESKTLLDFSIPYHVAYREAVTYALPVYRHSAVEYPVMQQLCCLLLPQFKENFEKPMQRGLEHHHHHH” as the sequence, how does the protein production read?
A: The protein production was “not failed”.

Q: Which protein production does the source give for “MNAPEIAAFKAERREPDKTDVDKLTGELDIRSEIWLIFDDLSTILEDQHFADKGVELLFSSLRYNTHNAKIIVTSRIVPIFENGESLIDVVEDEEKQNLKGLRKDYAVDYLVSNGLDKVEHEKLEELATGVDGHPLALKLLVELVKEFGVKDTLEDLSMYQESKDDTIKKARRLFDKLAGEEKELLESISVYREPVDMKGLREMFTLNTPKNAVKKLTDKSLLENDHNGSYWLHPLVQEFSYKDLKNKKEAHILAVKYCLSLPLPENPTKKGDVQPLIEAHYHTCAAKEYDAAAEIIFHFKLYEMLERWGNYNTLIELYEGVLPKSHFEDEPLLKNKEFHISILGNLGNVYTVLNEGKKAIQYHEKVVELNKGATNKFNEIISISNIGLFYFQQGMMKKAIECFEQTLKISNHDNQKGISGANLGNIGLVYLQIGEPKKAIQYFEKSLPLLKEANDKRREGANLGHMGMAYLQLNEAKEAVQCIQQSMYIAEEINDKRSIGNCFGNMGIIHSFFGEMKEALESYEQALSIAKEIDDRCNLGNWLGNKGRVYFDSGEIEKAIEFYKHALRIAKEINDVVREGLWIENLGQAFSYQGEFKKAIEYYEQALKISREIGNISAEGNLLENMGLAYYSLGEPRKAIEFLKESLAIRKAIEDPKIIGFCEQKLKELKGYDE” here?
A: Its protein production is “failed”.

Q: For “MNAQLQYQIEQFFYRKSELCDAQDWDAYLQLFAVDSEFHLPQWDSEHVYTRDPKREMSLIYYANRSGLEDRVFRLRTGKAASTIPMPRTLHMVSNLRIAEGDNGLLRVRLNWHTLFYRLATSEEFYGHATYDLKPQGDSWLIQRKHVLLLNDTINSVLDFYHL”, which protein production is on record?
A: Its protein production is “failed”.

Q: Which protein production does the source give for “MNARVHQPVHTAQHAPSYYAATLNRRIECPPLAGEEQADVCVVGGGFSGVNTALELAQRGFSVVLLEAHQIGWGASGRNGGQLIRGVGHDVEQFLPVIGADGVKALKLMGLEAVEIVRRRVEQYAIDCDLRWGYCDLANKPGDYQGFREDMEELQALGYRHEMRLVPAAEMRSVIGSDRYVGGLVDMGSGHLHPLNLVLGEAAAAQSLGVRLFERSTVMRIDYGTEVQVHTATGKVRAKTLVLGCNAYMNDLNPLLGGKVLPAGSYVIATEPLDEKLARQLLPQNMAVCDQRVALDYYRLSADNRLLFGGACHYSGRDPSDIAAYMRPKMLEVFPQLANVRIDYQWGGMIGIGANRLPQIGRLPGQPNVYFAQAYSGHGVNATHLAGQLLAEAIGGQQSDGFDLFAKVPHITFPGGKLLRSPLLALGMAWY” here?
A: The protein production was “failed”.

Q: For “MNAVTEGRKVLLEIADLKVHFEIKDGKQWFWQPPKTLKAVDGVTLRLYEGETLGVVGESGCGKSTFARAIIGLVKATDGHVAWLGKELLGMKPDEWRAVRSDIQMIFQDPLASLNPRMTIGEIIAEPLRTYHPKMSRQEVRERVKAMMLKVGLLPNLINRYPHEFSGGQCQRIGIARALILEPKLIICDEPVSALDVSIQAQVVNLLQQLQREMGLSLIFIAHDLAVVKHISDRVLVMYLGHAVELGTYDEVYHNPLHPYTRALMSAVPIPDPDLEKNKTIQLLEGELPSPINPPSGCVFRTRCPIAGPECAKTRPVLEGSFRHAVSCLKVDPL”, which protein production is on record?
A: The protein production was “failed”.

Q: For “MNAYLSMNSDWRASMTQTVLVLGASGRFGRNAAEAFGRAGWTVRQFDRKRDDLDAAARGADVIVNAWNPPYPDWAATVPGLHARVIKTAQATGATVIIPGNVYVFGADTPAPWGPDSPHAATNPLGRIRIDMEAAYRASGVRTILLRAGDFLDTCASGNWFDQVMIKRLDKGRFTYPGNPDIPHAWAYLPDLARATVTLSERRETLPVFCDLTYPGYTMTGRQIATGLEQVTGRRVALKRMNWLPLHLARPVWSLAGSLLEMRYLWNTPHSLDGAAFAKVLPEFVQTPFEQALASAIPARLLAAQVHPDQAVAAGL”, which protein production is on record?
A: Its protein production is “failed”.

Q: With “MNAYYYLAIAICAEVIATVSMKAVKGLSTPLPLALIIVGYGVAFWMLTLVVRTVPVGVAYAVWAGMGIVMVSIAALFLYGQKLDIPAMLGMALIVLGVVVIQLFSKTAGH” as the sequence, how does the protein production read?
A: Its protein production is “failed”.

Q: For “MNDFKNQWLRKRTFAIPASRLTGRLTTLKSDVPAADSLFWKLWNGSLDTAVQVLQTDYFKGIAAGTLDPNAYGSLMVQDGYYCFRGRDDYATAATCAQDETLREFFKAKAKSYDEYNETYHQTWHLREASGLIPGTDIKDYADYEAYVAGSLASPYMCVVMLPCEYLWPWIANFLDGYTPTNSLYRFWIEWNGGTPNGAYQMGNMLEQYRDKIDEDKAVEIFNTAMNYELKVFTSSTILTTIENGK”, which protein production is on record?
A: The protein production was “not failed”.

Q: Which protein production does the source give for “MNDFLFYLDIFGVIVFALSGALMAGRYQLDPFGVVVLASVTAVGGGTIRDVILQTPVFWVEKPYYLYVILATAILTIVLIRQPKRIPKRFLLIADALGLALFAVLGTQKALYLGAPIPVAVVLGTITGIAGGMIRDVLCNVIPMILREEIYALAAMLGGSLFIILHGLNWNDTNAMIVSISAALALRLAAIYWHVSLPAFHIVEKPKKEKGTTKIIEKK” here?
A: The protein production was “failed”.

Q: Which protein production does the source give for “MNDFTFRCERPSLRLFAAAVVAVLLGLAPASSESVRKSGYAIGTESCGSGDLAFPRLQIDMKAGFCAGLVASEEDRLKFPRSIVQVPGRDLFVVADMGGWGHTDGRLLLLDPHAPPGQRFKELLTGLEYPFGLVIGPDRKLYASTAEAIFRFDPLADNPRGTVETIIRHMPGRRITLPDGTRLDESAHPLKQFVFDRNGRLFVNVGSHSDDCITPAPITKPCAAAEGASAMAAIWLFTPPSGGVFPALRPNDPDPPHTVYARGLRNSMALALHPNFPDAGYAFLQGENGRDLPDIFKPNEEINAIEQGRHYGWPYCYDLSTPSPEFRSVLQSGTYKSLCTANALYKPPFSLLPPHGAPLAMLYYHGAKFPELEGKLLVGLHGYRPTGSRVLAYDVDDHGFPRPSPAPVRYHVSCAADPTHSFQTDAGEVAAAPFEELIAGWHRVNGARPQGAPVGMTVAEDGAIWLVEDKNQTVIRIDRAAGDAPQPLPCDTRSQAMIDQLAAFIARDAQNSVRLTTLRKGLVEKHCLGCHSDFGLKAGQSEAEKDATVLRFMLSQDGWIYPGDPDSGRLRTRLRGLGAEKLMPPGGESLPKTEPGYARLLDTADLLVARMVPGTRIRIKAGPPQRRFFGKTNKECGEIPAAKVVVVTQRSAVDKPGFSRFFRPADPYLNGECTDDDGYYIRQEFLVPVQ” here?
A: Its protein production is “failed”.

Q: Which protein production does the source give for “MNDLLSSYLPVLIFIVVSAVIAGGLLVIPYIVAYRSPDPEKLSAYECGFNSFNDARMKFDIRFYLVSILFIIFDLEVAFLFPWAVSFGSIGMFGFWSMIIFLALLTVGFIYEWKKGALEWD” here?
A: The protein production was “failed”.

Q: For “MNDPMGETGFSRESAPEIVFSETDMAAAEQLMHLSEEETVSCSSSTGGDCGGGGGDKIKHEYVSSRIGNELNDGVRGNSILGVEKKRKRTVMKEKKFRSLESIYKGTKEIRD”, which protein production is on record?
A: The protein production was “failed”.

Q: For “MNDRSLGILLMFLTVIFWGISFVATKIILVYIPPITLGFIRFAIAAMILIVLIRNFPSYSKKDFLNLVLAGFLGITSYFLFENVALEYTTATNAALIAATVPIFYLMVSDLVERRIPSKIQYFGSLIGLFGVSILILNGRLILELNPIGDLLMIGAVLSWVLYTFVIQKLEKHDNLTVTRDITLIGVLLSVPFMLLEFGSKGVLDLGVFLNPPLTFAVLYLAIFCSAIAYLFWNMSIRLAGASTTNNGIYFIPIVAMIADSIILKNIPNIYATIGAVLVLFGVYISEKGDKLKIKL”, which protein production is on record?
A: The protein production was “failed”.

Q: Which protein production does the source give for “MNEHNITNTSLALSMLLVVVAMLISHKEKLALEKDILWSVCRAVIQLIIVGYVLKYIFGVNHAALTLLMVLFICFNAAWNAQKRSKYIDKAFLSSFIAITVGAGLTLTVLVLTGSIEFAPMQVIPIAGMVAGNAMVAVGLCYNQLGLRFHSEQQQIQEKLSLGATPKMASAGLIRDSIRASLIPTIDSAKTVGLVSLPGMMSGLIFAGIDPVKAIKYQIMVTFMLLSTASLSTIIACYLTYRKFYNSRHQLVVMPLKKS” here?
A: The protein production was “failed”.

Q: With “MNEKFNINIAWFLIILGGIIECFWVSGLKYSTEIWHYILTAIGVCISFTCFLKACERLEVSITYSVFVGIGTIGVVLNEMFIFNEAVSIIKLVLIAILLLSIIALKWVSKEA” as the sequence, how does the protein production read?
A: Its protein production is “failed”.

Q: Which protein production does the source give for “MNENTKVIKGRTGDWEMVLGLEVHAQVASKSKLFSGAAVGFGAGPNEQVSLVDAAMPGMLPVLNRFCVEQAVKTGLGLRAQINLKSRFDRKNYFYPDLPQGYQISQFDQPIVGEGVVSVERDDGTTFDVRIERLHLEQDAGKSLHDQDPNATYVDLNRAGTALMEIVSKPDMRTSEEAAAYVKKLRTILVYLGTCDGDMEKGNLRADVNVSVCRPGDYEKFRATGDFKHLGTRCEIKNVNSYRYIQQAIEYEARRQIEILEDGGKVDQETRLFDPTKGETRSMRSKEEAHDYRYFPDPDLLPLVLDPAWVKSIEETLPELPDAKKARLQSQYGLSAYDAGVLIIDADRADYFEAAAKGRDAKLVANWVTNELLAKLSAAGTEFTNSPLPHTDIAQLVELIENGTISSKIAKEVFEHMWAGEGRPAEIVEKRGLVQINDTGAIEKAIDDLIAGNPDKAEAVKDKPQALGWFVGQVMKATGGKANPGTVNELLRKKLGVE” here?
A: The protein production was “failed”.

Q: With “MNEQKNTAENTVNKQKDLETAGKTREKEDPKQLLLTASETDNYEDKLRIYDKALGLDPLYFDAWLQKGFVLDRLGRSNEALDCYNKALEIVPDHLGIKCLKGFAYSNLKDYEKAIECYDEVLKVNSEDVFSLFQKGSVLENLGRYGEAMEAYDRALEIDPADILIREKKMRLLGLIYKKGTLVDSPDSDFN” as the sequence, how does the protein production read?
A: Its protein production is “failed”.
